Where no end group is shown, it is not given here. [ ]: non-standard residue; d: D form. Bip(2'-Et-4'-OMe) = CCc1cc(OC)ccc1-c1ccc(C[C@H](N)C(=O)O)cc1; αMePhe(2,6-F2) = C[C@](N)(Cc1c(F)cccc1F)C(=O)O; αMePhe(2-F) = C[C@](N)(Cc1ccccc1F)C(=O)O; αMeBip(OMe) = alpha-methylated Bip(OMe); hhPhe = N[C@@H](CCCc1ccccc1)C(=O)O; αMeD = C[C@](N)(CC(=O)O)C(=O)O; αMeP = C[C@@]1(C(=O)O)CCCN1; αMeAPPA = not defined here; αMeS = C[C@](N)(CO)C(=O)O; Aib = CC(C)(N)C(=O)O
target: human glucagon receptor (human, UniProt P47871 26-477); assay: cell-based or functional assay
Sequence (P47871 26-477): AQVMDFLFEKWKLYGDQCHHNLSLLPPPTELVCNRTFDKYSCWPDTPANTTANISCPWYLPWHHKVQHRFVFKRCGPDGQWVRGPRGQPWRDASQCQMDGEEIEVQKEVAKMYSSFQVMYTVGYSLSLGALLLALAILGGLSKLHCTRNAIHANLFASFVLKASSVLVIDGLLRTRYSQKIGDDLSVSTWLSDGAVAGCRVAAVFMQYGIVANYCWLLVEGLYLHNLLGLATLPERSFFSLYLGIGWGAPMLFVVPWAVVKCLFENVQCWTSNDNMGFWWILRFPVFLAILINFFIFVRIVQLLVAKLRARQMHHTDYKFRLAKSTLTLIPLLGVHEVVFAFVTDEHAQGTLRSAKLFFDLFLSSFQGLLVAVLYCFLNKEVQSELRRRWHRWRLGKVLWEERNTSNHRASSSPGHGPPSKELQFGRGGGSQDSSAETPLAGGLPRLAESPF

Row | Binder | cAMP production (pmol/ml/µg prt) with saturated glucagon peptide, at 1 nM | cAMP production (pmol/ml/µg prt) with saturated glucagon peptide, at 10 nM | cAMP production (pmol/ml/µg prt) with saturated glucagon peptide, at 100 nM | cAMP production (pmol/ml/µg prt) with saturated glucagon peptide, at 1 µM | cAMP production (pmol/ml/µg prt) with saturated glucagon peptide, at 10 µM
1 | VH[αMeP]EGT[αMePhe(2,6-F2)]TS[αMeD][αMeBip(OMe)][hhPhe] (not fully specified (C-terminus)) [Seq. ID. No. 80] | 0 pmol/ml/µg prt | 0 pmol/ml/µg prt | 0 pmol/ml/µg prt | 0 pmol/ml/µg prt | 0 pmol/ml/µg prt
2 | VHSEGTFTSD[Bip(2'-Et-4'-OMe)][αMeAPPA] (not fully specified (C-terminus); printed as VHSEGTFTSD-Bip(OMe)-(αMe-APPA); reading uncertain) [Seq. ID. No. 87] | 5 pmol/ml/µg prt | 3 pmol/ml/µg prt | 1 pmol/ml/µg prt | 0 pmol/ml/µg prt | 0 pmol/ml/µg prt
3 | VH[Aib]EGTFT[αMeS]D[αMeBip(OMe)][hhPhe]-NH2 [Seq. ID. No. 39] | 17 pmol/ml/µg prt | 15 pmol/ml/µg prt | 12 pmol/ml/µg prt | 8 pmol/ml/µg prt | 6 pmol/ml/µg prt
4 | VHAEGT[αMePhe(2-F)]TS[αMeD][αMeBip(OMe)][hhPhe]-NH2 [Seq. ID. No. 70] | 2 pmol/ml/µg prt | 0 pmol/ml/µg prt | 0 pmol/ml/µg prt | 0 pmol/ml/µg prt | 0 pmol/ml/µg prt
5 | VH[Aib]EGT[αMePhe(2-F)]T[αMeS]D[αMeBip(OMe)][hhPhe]-NH2 [Seq. ID. No. 47] | 9 pmol/ml/µg prt | 6 pmol/ml/µg prt | 5 pmol/ml/µg prt | 3 pmol/ml/µg prt | 0 pmol/ml/µg prt
6 | VH[Aib]EGT[αMePhe(2-F)]TSD[αMeBip(OMe)][hhPhe]-NH2 [Seq. ID. No. 23] | 10 pmol/ml/µg prt | 8 pmol/ml/µg prt | 6 pmol/ml/µg prt | 2 pmol/ml/µg prt | 0 pmol/ml/µg prt

More lines, now with the values ahead:

Row | cAMP production (pmol/ml/µg prt) with saturated glucagon peptide, at 1 nM | cAMP production (pmol/ml/µg prt) with saturated glucagon peptide, at 10 nM | cAMP production (pmol/ml/µg prt) with saturated glucagon peptide, at 100 nM | cAMP production (pmol/ml/µg prt) with saturated glucagon peptide, at 1 µM | cAMP production (pmol/ml/µg prt) with saturated glucagon peptide, at 10 µM | Binder
7 | 15 pmol/ml/µg prt | 12 pmol/ml/µg prt | 8 pmol/ml/µg prt | 4 pmol/ml/µg prt | 2 pmol/ml/µg prt | VH[Aib]EGTFT[αMeS]D[αMeBip(OMe)][αMeAPPA] (not fully specified (C-terminus); printed as VH-Aib-EGTFT-(αMe-Ser)-D-(αMe-Bip(OMe))-(αMe-APPA); reading uncertain) [Seq. ID. No. 163]
8 | 20 pmol/ml/µg prt | 18 pmol/ml/µg prt | 16 pmol/ml/µg prt | 14 pmol/ml/µg prt | 12 pmol/ml/µg prt | VH[Aib]EGTFTS[αMeD][αMeBip(OMe)][hhPhe]-NH2 [Seq. ID. No. 63]
9 | 9 pmol/ml/µg prt | 6 pmol/ml/µg prt | 5 pmol/ml/µg prt | 3 pmol/ml/µg prt | 0 pmol/ml/µg prt | VH[Aib]QGT[αMePhe(2-F)]T[αMeS]D[αMeBip(OMe)][αMeAPPA] (not fully specified (C-terminus); reading uncertain) [Seq. ID. No. 167]
10 | 5 pmol/ml/µg prt | 3 pmol/ml/µg prt | 0 pmol/ml/µg prt | 0 pmol/ml/µg prt | 0 pmol/ml/µg prt | VHAEGT[αMePhe(2,6-F2)]TSD[αMeBip(OMe)][hhPhe]-NH2 [Seq. ID. No. 30]
11 | 6 pmol/ml/µg prt | 5 pmol/ml/µg prt | 2 pmol/ml/µg prt | 0 pmol/ml/µg prt | 0 pmol/ml/µg prt | VHSQGT[αMePhe(2-F)]TSD[αMeBip(OMe)][hhPhe] (not fully specified (C-terminus); printed as VHSQGT-(αMe-2FPhe)-TSD-(αMe-Bip(OMe))-(APPA)) [Seq. ID. No. 17]
12 | 15 pmol/ml/µg prt | 12 pmol/ml/µg prt | 8 pmol/ml/µg prt | 4 pmol/ml/µg prt | 2 pmol/ml/µg prt | VH[Aib]QGT[αMePhe(2-F)]TSD[αMeBip(OMe)][hhPhe] (not fully specified (C-terminus); printed as VH-Aib-QGT-(αMe-2FPhe)-TSD-(αMe-Bip(OMe))-(APPA)) [Seq. ID. No. 19]
13 | 4 pmol/ml/µg prt | 2 pmol/ml/µg prt | 0 pmol/ml/µg prt | 0 pmol/ml/µg prt | 0 pmol/ml/µg prt | VH[Aib]EGTFT[αMeS][αMeD][Bip(2'-Et-4'-OMe)][αMeAPPA] (not fully specified (C-terminus); printed as VH-Aib-EGTFT-(αMe-Ser)-(αMe-Asp)-Bip(OMe)-(αMe-APPA); reading uncertain) [Seq. ID. No. 113]
14 | 5 pmol/ml/µg prt | 3 pmol/ml/µg prt | 0 pmol/ml/µg prt | 0 pmol/ml/µg prt | 0 pmol/ml/µg prt | VH[αMeP]QGT[αMePhe(2-F)]T[αMeS]D[αMeBip(OMe)][hhPhe]-NH2 [Seq. ID. No. 44]

From patent publication US20120264685A1 (priority 2009, published 2012)
